The results in this text go back to paper PMC9262588.

One may read the Kd as the concentration at which binding is half-saturated. Higher therefore signals lower affinity.

The target in the series is T1, FAM-tat peptide (UniProt P04608, also: FAM label, position not given here).
T1 chain: AAARKKRRQRRRAAA
As to the kind of experiment: SPR. For orientation: SPR reads the build-up and loss of mass on a sensor chip optically.

No end group written: not given here.

Consider GGCAGAUCUGAGCCUGGGAGCUCUCUGCC (structured_RNA) [biotin-TAR RNA], for which the Kd worked out at 380 nM.
